Where “and” joins values, the source holds several entries; their conditions need not be identical. Equal entries are not always repeated.
Tests used:
[1] = target: the molecule itself; test: SEC-MALS; proteins in isolation, 5-20 mg/ml; Superdex 200 Increase, 20 mM Tris pH 8.0, 150 mM KCl, 2 mM DTT
[2] = target: T1, SYCP1αNcore (amino-acids 206-362) (human, UniProt Q15431 206-362); test: ITC; SYCE3 (400 μM) injected into SYCP1αNcore (70 μM) at 30°C; 25 mM Tris pH 8.0, 250 mM KCl, 2 mM DTT; apparent affinity; settings: both partners purified
T1 construct: SYCP1 αNcore (tetrameric core), amino-acids 206-362; Tetramer alone (SEC-MALS); two chains in the 2:1 complex with SYCE3; also called SYCP1 tetrameric core; source: E. coli BL21(DE3), purified alone or co-expressed and co-purified with SYCE3 (amylose, TEV, anion exchange, SEC); not shown: MBP, N-terminal, cleaved
T1 sequence (looked up): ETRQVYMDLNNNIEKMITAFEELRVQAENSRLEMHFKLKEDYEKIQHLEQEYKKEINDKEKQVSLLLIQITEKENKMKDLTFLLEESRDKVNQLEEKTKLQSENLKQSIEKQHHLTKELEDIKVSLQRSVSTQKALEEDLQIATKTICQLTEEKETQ

[3] = target: T2, SYCE2-TEX12core (human, UniProt Q6PIF2 57-165; Q9BXU0 49-123, RED dye (Monolith NT Protein Labelling Kit RED) in the MST only; which chain not stated | RED dye (Monolith NT Protein Labelling Kit RED) in the MST only; which chain not stated); test: MST; SYCE3 titrated into 150 nM labelled SYCE2-TEX12core; Monolith NT.115, excitation and MST power 40 %; apparent affinity; settings: both partners purified
T2 construct: SYCE2 core; TEX12 core; Unlabelled in the SEC, labelled in the MST; source: E. coli BL21(DE3), purified
T2 sequence (looked up) 1: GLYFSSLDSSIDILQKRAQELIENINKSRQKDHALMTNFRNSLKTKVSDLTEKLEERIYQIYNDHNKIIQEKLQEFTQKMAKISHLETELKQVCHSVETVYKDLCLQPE
T2 sequence (looked up) 2: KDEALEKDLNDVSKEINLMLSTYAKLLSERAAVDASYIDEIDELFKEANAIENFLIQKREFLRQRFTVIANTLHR

[4] = target: T3, SYCP1 αCore-ΔNtip (amino-acids 112-783) (human, UniProt Q15431 112-783); test: SEC-MALS; co-expressed and co-purified SYCP1-SYCE3 complexes, 5-20 mg/ml; 20 mM Tris pH 8.0, 150 mM KCl, 2 mM DTT (Superose 6 Increase for MBP-SYCP1αN-His-SYCE3); settings: both partners purified
T3 construct: SYCP1 α-helical core without the αNtip, amino-acids 112-783; also called SYCP1's full α-helical core, in which αNtips were deleted; source: E. coli BL21(DE3), purified, alone or in complex with SYCE3
T3 sequence (looked up): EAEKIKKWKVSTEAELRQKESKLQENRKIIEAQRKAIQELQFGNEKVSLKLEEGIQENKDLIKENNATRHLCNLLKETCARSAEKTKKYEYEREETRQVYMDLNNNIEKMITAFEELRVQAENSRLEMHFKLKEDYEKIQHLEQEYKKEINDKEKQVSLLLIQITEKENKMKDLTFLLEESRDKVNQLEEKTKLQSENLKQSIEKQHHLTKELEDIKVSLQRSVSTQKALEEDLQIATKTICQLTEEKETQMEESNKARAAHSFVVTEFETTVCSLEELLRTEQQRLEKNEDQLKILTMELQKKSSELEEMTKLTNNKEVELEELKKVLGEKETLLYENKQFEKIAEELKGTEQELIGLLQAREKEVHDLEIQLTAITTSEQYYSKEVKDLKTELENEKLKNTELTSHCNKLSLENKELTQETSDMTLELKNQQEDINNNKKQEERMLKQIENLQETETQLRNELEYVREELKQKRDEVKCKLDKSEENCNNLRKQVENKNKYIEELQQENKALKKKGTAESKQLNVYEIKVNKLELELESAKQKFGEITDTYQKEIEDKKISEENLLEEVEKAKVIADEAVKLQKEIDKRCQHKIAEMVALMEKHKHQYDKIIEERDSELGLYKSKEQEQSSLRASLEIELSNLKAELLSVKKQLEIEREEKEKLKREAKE

[5] = target: T4, SYCP1αN (amino-acids 101-362) (human, UniProt Q15431 101-362); test: as above; settings: both partners purified
T4 construct: SYCP1 α-helical N-terminal region, amino-acids 101-362; source: E. coli BL21(DE3), purified, alone or co-expressed and co-purified with SYCE3
T4 sequence (looked up): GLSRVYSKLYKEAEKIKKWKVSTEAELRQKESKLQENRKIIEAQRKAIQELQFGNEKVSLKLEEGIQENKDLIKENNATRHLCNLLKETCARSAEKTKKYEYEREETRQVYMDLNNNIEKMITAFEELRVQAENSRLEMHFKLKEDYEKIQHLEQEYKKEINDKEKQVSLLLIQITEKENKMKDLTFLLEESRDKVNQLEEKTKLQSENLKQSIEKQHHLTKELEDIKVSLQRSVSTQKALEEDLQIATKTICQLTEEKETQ

[6] = target: T5, SYCP1αN ΔNtip (human, UniProt Q15431 112-362); test: as above; settings: both partners purified
T5 construct: SYCP1αN (101-362) with the αNtip (101-111) deleted; also called SYCP1 ΔNtip; source: E. coli BL21(DE3), co-purified with SYCE3
T5 sequence (looked up): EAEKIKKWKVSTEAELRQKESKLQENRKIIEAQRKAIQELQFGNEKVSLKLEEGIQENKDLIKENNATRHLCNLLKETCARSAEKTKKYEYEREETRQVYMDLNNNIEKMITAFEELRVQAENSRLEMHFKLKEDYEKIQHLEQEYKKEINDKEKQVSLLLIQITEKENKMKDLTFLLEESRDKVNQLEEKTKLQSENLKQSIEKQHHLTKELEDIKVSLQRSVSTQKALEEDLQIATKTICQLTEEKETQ

[7] = target: T6, SYCP1αN V105E L109E (human, UniProt Q15431 101-362, V105E | L109E); test: as above; settings: both partners purified
T6 construct: SYCP1αN, amino-acids 101-362, with V105E L109E; source: E. coli BL21(DE3), in complex with SYCE3
T6 sequence (looked up): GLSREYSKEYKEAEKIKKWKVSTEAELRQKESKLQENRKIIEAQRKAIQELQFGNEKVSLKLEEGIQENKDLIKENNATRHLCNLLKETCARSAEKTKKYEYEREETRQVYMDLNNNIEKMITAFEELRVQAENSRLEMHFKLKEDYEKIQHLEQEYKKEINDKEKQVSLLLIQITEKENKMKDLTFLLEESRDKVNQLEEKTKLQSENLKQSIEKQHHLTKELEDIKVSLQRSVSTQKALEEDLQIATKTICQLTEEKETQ

[8] = target: T1, SYCP1αNcore (amino-acids 206-362); test: as above; settings: both partners purified

B1: SYCE3 (natural protein, human, UniProt A1L190 1-88, looked up)
chain: MDDADPEERNYDNMLKMLSDLNKDLEKLLEEMEKISVQATWMAYDMVVMRTNPTLAESMRRLEDAFVNCKEEMEKNWQELLHETKQRL
notes: SYCE3 without a stated truncation; Dimer alone (SEC-MALS); one chain in the 2:1 complex with SYCP1; also called SYCE3 wild-type; free SYCE3; source: E. coli BL21(DE3), purified (Ni-NTA or amylose, TEV, anion exchange, SEC), alone or co-purified with SYCP1 constructs; not shown: His or His-MBP, N-terminal, cleaved
[1]
  stoichiometry N: 2
[2]
  Kd: 170 nM
  apparent KD of one replicate: 230 nM and 120 nM and 160 nM
[3]
  Kd: 21800 nM
[4]
  stoichiometry N: 2 SYCP1 chains per SYCE3 chain
[5]
  stoichiometry N: 2 SYCP1 chains per SYCE3 chain (2:1) and 4 SYCP1 chains with 2 SYCE3 chains (4:2)
[6]
  stoichiometry N: 2 SYCP1 chains per SYCE3 chain
[7]
  stoichiometry N: 2 SYCP1 chains per SYCE3 chain
[8]
  stoichiometry N: 2 SYCP1 chains per SYCE3 chain
